Measurements as given in article PMC5441850, “Waxy and non-waxy barley cultivars exhibit differences in the targeting and catalytic activity of GBSS1a” (Journal of Experimental Botany, 2017).
Substitutions are numbered along the chain they refer to. In names and notes the source's numbering stands.

B1: HvGBSSIa (Hordeum vulgare; D287V/I559V/M558V) (protein)
chain: SATGSGMNLVFVGAEMAPWSKTGGLGDVLGGLPPAMAANGHRVMVVSPRYDQYKDAWDTSVISEIKVADEYERVRFFHCYKRGVDRVFIDHPWFLEKVRGKTKEKIYGPDAGTDYEDNQQRFSLLCQAALEAPRILNLNNNPYFSGPYGEDVVFVCNDWHTGLLACYLKSNYQSNGIYRTAKVAFCIHNISYQGRFSFDDFAQLNLPDRFKSSFDFIVGYDKPVEGRKINWMKAGILQADKVLTVSPYYAEELISGEARGCELDNIMRLTGITGIVNGMDVSEWDPTKDKFLAVNYDITTALEAKALNKEALQAEVGLPVDRKVPLVAFIGRLEEQKGPDVMIAAIPEILKEEDVQIILLGTGKKKFEKLLKSMEEKFPGKVRAVVRFNAPLAHQMMAGADLLAVTSRFEPCGLIQLQGMRYGTPCVCASTGGLVDTIVEGKTGFHMGRLSVDCNVVEPADVKKVATTLKRAVKVVGTPAYQEMVKNCVVQDLSWKGPAKNWEDVLLELGVEGSEPGIVGEEIAPLAMENVAAP
notes: initial 69 residues (plastid transit peptide) removed; codon-optimized, pET28a 6xHis tag; E. coli Tuner(DE3); HisTrap and Superdex75; mature size 59 kDa; CDC Alamo allele entry AF486519
B2: HvGBSSIa (Hordeum vulgare; I559V/M558V) (protein)
chain: B1 chain with V218D
notes: as for B1
B3: HvGBSSIa (Hordeum vulgare) (protein)
chain: B1 chain with V218D, V489M, V490I
notes: as for B1
B4: HvGBSSIa (Hordeum vulgare; D287V) (protein)
chain: B1 chain with V489M, V490I
notes: as for B1
B5: HvGBSSIa (Hordeum vulgare; M558V) (protein)
chain: B1 chain with V218D, V490I
notes: as for B1
B6: HvGBSSIa (Hordeum vulgare; I559V) (protein)
chain: B1 chain with V218D, V489M
notes: as for B1

The proteins below were run on Nc1ncnc2c1ncn2[C@@H]1O[C@H](COP(=O)(O)OP(=O)(O)O[C@H]2O[C@H](CO)[C@@H](O)[C@H](O)[C@H]2O)[C@@H](O)[C@H]1O (assay: purified protein). Details: rabbit liver glycogen 1 mg/ml as acceptor, 50 mM Bicine pH 8.5, 25 mM potassium acetate, 2 mM MgCl2, 10 mM DTT, 37 °C.
Type: biochemical, Hordeum vulgare
B1 was tested, and the Km was 51 ± 10 µM and the kcat was 0.56 ± 0.03 min⁻¹.
B2 showed a Km of 56 ± 8 µM and a kcat of 0.94 ± 0.04 min⁻¹.
Protein B3 has a Km of 160 ± 15 µM and a kcat of 5.8 ± 0.2 min⁻¹.
Work on B4 yielded a Km of 127 ± 9 µM and a kcat of 2.76 ± 0.06 min⁻¹.
Protein B5 has a Km of 71 ± 7 µM and a kcat of 21.2 ± 0.6 min⁻¹.
For B6, the Km was 114 ± 15 µM and the kcat was 6.7 ± 0.3 min⁻¹.
